Residue numbers refer to the chain shown, from its start. In names and notes the source's numbering stands. Each block holds one binder with its values, some of them ahead of it.
Target: T1, CD3ε homodimer protein (human, UniProt P07766 23-126, limits assumed)
T1 construct: also called CD3 (CD3ε)
Assay: SPR Biacore T200, CD3ε homodimer on chip;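 further: Light-chain single-residue variant antibodies injected over amine-coupled CD3ε homodimer on a CM4 chip at 25 °C, bound amount divided by that of the GLS3000-containing antibody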

T1 sequence (P07766 23-126 limits assumed): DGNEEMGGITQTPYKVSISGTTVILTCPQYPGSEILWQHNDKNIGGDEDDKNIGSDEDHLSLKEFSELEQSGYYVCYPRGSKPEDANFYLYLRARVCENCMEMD

- ratio of amount bound vs unaltered GLS3000: 0.54
B2: GLS3000 N53E one-arm antibody (antibody, human IgG1, kappa, L234A L235A, N297A, name in Kabat numbering)
heavy: QVQLVESGGGVVQPGRSLRLSCAASGFTFSNAWMHWVRQAPGKGLEWVAQIKAKSNNYATYYAESVKGRFTISRDDSKNSLYLQMNSLKTEDTAVYYCRYVHYGAYYGVDAWGQGTTVTVSSASTKGPSVFPLAPSSKSTSGGTAALGCLVKDYFPEPVTVSWNSGALTSGVHTFPAVLQSSGLYSLSSVVTVPSSSLGTQTYICNVNHKPSNTKVDKKVEPKSCDKTHTCPPCPAPEAAGGPSVFLFPPKPKDTLMISRTPEVTCVVVDVSHEDPEVKFNWYVDGVEVHNAKTKPREEQYASTYRVVSVLTVLHQDWLNGKEYKCKVSNKALPAPIEKTISKAKGQPREPQVYTLPPSRCELTKNQVSLSCAVKGFYPSDIAVEWESNGQPENNYKTTPPVLDSDGSFFLVSKLTVDKSRWQQGNVFSCSVMHEALHNHYTQKSLSLSPDYKDDDDK
chain: EPKSSDKTHTCPPCPAPELLGGPSVFLFPPKPKDTLMISRTPEVTCVVVDVSHEDPEVKFNWYVDGVEVHNAKTKPREEQYNSTYRVVSVLTVLHQDWLNGKEYKCKVSNKALPAPIEKTISKAKGQPREPQVCTLPPSRDELTKNQVSLWCLVKGFYPSDIAVEWESNGQPENNYKTTPPVLDSDGSFFLYSKLTVDKSRWQQGNVFSCSVMHEALHNRYTQKSLSLSP
light: DIVMTQSPLSLPVTPGEPASISCRSSQSLVHSNRNTYLHWYQQKPGQAPRLLIYKVSERFSGVPDRFSGSGSGTDFTLKISRVEAEDVGVYYCGQGTQVPYTFGQGTKLEIKRTVAAPSVFIFPPSDEQLKSGTASVVCLLNNFYPREAKVQWKVDNALQSGNSQESVTEQDSKDSTYSLSSTLTLSKADYEKHKVYACEVTHQGLSSPVTKSFNRGEC

- ratio of amount bound vs unaltered GLS3000: 0.99
B4: GLS3000 N30W one-arm antibody (antibody, human IgG1, kappa, L234A L235A, N297A, name in Kabat numbering)
heavy: B2 heavy
chain: B2 chain
light: B2 light with N35W, E58N

- ratio of amount bound vs unaltered GLS3000: 0.34
B6: GLS3000 N53D one-arm antibody (antibody, human IgG1, kappa, L234A L235A, N297A, name in Kabat numbering)
heavy: B2 heavy
chain: B2 chain
light: B2 light with E58D

- ratio of amount bound vs unaltered GLS3000: 0.61
B8: GLS3000 N30V one-arm antibody (antibody, human IgG1, kappa, L234A L235A, N297A, name in Kabat numbering)
heavy: B2 heavy
chain: B2 chain
light: B2 light with N35V, E58N

- ratio of amount bound vs unaltered GLS3000: 0.29
B11: GLS3000 N30S one-arm antibody (antibody, human IgG1, kappa, L234A L235A, N297A, name in Kabat numbering)
heavy: B2 heavy
chain: B2 chain
light: B2 light with N35S, E58N

- ratio of amount bound vs unaltered GLS3000: 1.86
B14: GLS3000 N30R one-arm antibody (antibody, human IgG1, kappa, L234A L235A, N297A, name in Kabat numbering)
heavy: B2 heavy
chain: B2 chain
light: B2 light with N35R, E58N

- ratio of amount bound vs unaltered GLS3000: 0.61
B16: GLS3000 N53A one-arm antibody (antibody, human IgG1, kappa, L234A L235A, N297A, name in Kabat numbering)
heavy: B2 heavy
chain: B2 chain
light: B2 light with E58A

- ratio of amount bound vs unaltered GLS3000: 1.04
B19: GLS3000 N30Y one-arm antibody (antibody, human IgG1, kappa, L234A L235A, N297A, name in Kabat numbering)
heavy: B2 heavy
chain: B2 chain
light: B2 light with N35Y, E58N

- ratio of amount bound vs unaltered GLS3000: 0.29
B21: GLS3000 N30T one-arm antibody (antibody, human IgG1, kappa, L234A L235A, N297A, name in Kabat numbering)
heavy: B2 heavy
chain: B2 chain
light: B2 light with N35T, E58N

Second part, the binder before the results:

B1: GLS3000 N28W one-arm antibody (antibody, human IgG1, kappa, L234A L235A, N297A, name in Kabat numbering)
heavy: B2 heavy
chain: B2 chain
light: B2 light with N33W, E58N
- ratio of amount bound vs unaltered GLS3000: 0.41

B3: GLS3000 N30L one-arm antibody (antibody, human IgG1, kappa, L234A L235A, N297A, name in Kabat numbering)
heavy: B2 heavy
chain: B2 chain
light: B2 light with N35L, E58N
- ratio of amount bound vs unaltered GLS3000: 0.7

B5: GLS3000 N30Q one-arm antibody (antibody, human IgG1, kappa, L234A L235A, N297A, name in Kabat numbering)
heavy: B2 heavy
chain: B2 chain
light: B2 light with N35Q, E58N
- ratio of amount bound vs unaltered GLS3000: 0.87

B7: GLS3000 N30I one-arm antibody (antibody, human IgG1, kappa, L234A L235A, N297A, name in Kabat numbering)
heavy: B2 heavy
chain: B2 chain
light: B2 light with N35I, E58N
- ratio of amount bound vs unaltered GLS3000: 0.61

B9: GLS3000 N30K one-arm antibody (antibody, human IgG1, kappa, L234A L235A, N297A, name in Kabat numbering)
heavy: B2 heavy
chain: B2 chain
light: B2 light with N35K, E58N
- ratio of amount bound vs unaltered GLS3000: 1.65

B10: GLS3000 N30M one-arm antibody (antibody, human IgG1, kappa, L234A L235A, N297A, name in Kabat numbering)
heavy: B2 heavy
chain: B2 chain
light: B2 light with N35M, E58N
- ratio of amount bound vs unaltered GLS3000: 0.8

B12: GLS3000 N30A one-arm antibody (antibody, human IgG1, kappa, L234A L235A, N297A, name in Kabat numbering)
heavy: B2 heavy
chain: B2 chain
light: B2 light with N35A, E58N
- ratio of amount bound vs unaltered GLS3000: 0.5

B13: GLS3000 N30F one-arm antibody (antibody, human IgG1, kappa, L234A L235A, N297A, name in Kabat numbering)
heavy: B2 heavy
chain: B2 chain
light: B2 light with N35F, E58N
- ratio of amount bound vs unaltered GLS3000: 1.1

B15: GLS3000 N30H one-arm antibody (antibody, human IgG1, kappa, L234A L235A, N297A, name in Kabat numbering)
heavy: B2 heavy
chain: B2 chain
light: B2 light with N35H, E58N
- ratio of amount bound vs unaltered GLS3000: 0.98

B17: GLS3000 N30D one-arm antibody (antibody, human IgG1, kappa, L234A L235A, N297A, name in Kabat numbering)
heavy: B2 heavy
chain: B2 chain
light: B2 light with N35D, E58N
- ratio of amount bound vs unaltered GLS3000: 0.34

B18: GLS3000 N30P one-arm antibody (antibody, human IgG1, kappa, L234A L235A, N297A, name in Kabat numbering)
heavy: B2 heavy
chain: B2 chain
light: B2 light with N35P, E58N
- ratio of amount bound vs unaltered GLS3000: 0.31

B20: GLS3000 N30E one-arm antibody (antibody, human IgG1, kappa, L234A L235A, N297A, name in Kabat numbering)
heavy: B2 heavy
chain: B2 chain
light: B2 light with N35E, E58N
- ratio of amount bound vs unaltered GLS3000: 0.44

B22: GLS3000 N28Y one-arm antibody (antibody, human IgG1, kappa, L234A L235A, N297A, name in Kabat numbering)
heavy: B2 heavy
chain: B2 chain
light: B2 light with N33Y, E58N
- ratio of amount bound vs unaltered GLS3000: 0.26

B23: GLS3000 N30G one-arm antibody (antibody, human IgG1, kappa, L234A L235A, N297A, name in Kabat numbering)
heavy: B2 heavy
chain: B2 chain
light: B2 light with N35G, E58N
- ratio of amount bound vs unaltered GLS3000: 0.47

Reference: US20260049138A1 (Chugai, published 2026)
